From patent US20230038761, “REGULATION OF VON WILLEBRAND FACTOR (VWF)” (BAND THERAPEUTICS, LLC, published 2023)

B1: BT200/BT101 duplex (dsRNA)
RNA 1: GCCAGGGACCUAAGACACAUGUCCCUGGC
RNA 2: ACAUGUGUCUUAGGUCCCUGGCT
modifications: all residues 2'-OMe in both strands; BT200 5' PEG40K-NH; 3' idT on both strands

Columns and labels:
[1] = target: T1, von Willebrand factor (VWF) (Homo sapiens, UniProt P04275 SEQ:764-2813); experiment: ELISA; no OD increase up to 10 uM BT200 after pre-incubation with BT101 at 1:1; dPBS, 37 C
T1 sequence (P04275 764-2813 Q852R): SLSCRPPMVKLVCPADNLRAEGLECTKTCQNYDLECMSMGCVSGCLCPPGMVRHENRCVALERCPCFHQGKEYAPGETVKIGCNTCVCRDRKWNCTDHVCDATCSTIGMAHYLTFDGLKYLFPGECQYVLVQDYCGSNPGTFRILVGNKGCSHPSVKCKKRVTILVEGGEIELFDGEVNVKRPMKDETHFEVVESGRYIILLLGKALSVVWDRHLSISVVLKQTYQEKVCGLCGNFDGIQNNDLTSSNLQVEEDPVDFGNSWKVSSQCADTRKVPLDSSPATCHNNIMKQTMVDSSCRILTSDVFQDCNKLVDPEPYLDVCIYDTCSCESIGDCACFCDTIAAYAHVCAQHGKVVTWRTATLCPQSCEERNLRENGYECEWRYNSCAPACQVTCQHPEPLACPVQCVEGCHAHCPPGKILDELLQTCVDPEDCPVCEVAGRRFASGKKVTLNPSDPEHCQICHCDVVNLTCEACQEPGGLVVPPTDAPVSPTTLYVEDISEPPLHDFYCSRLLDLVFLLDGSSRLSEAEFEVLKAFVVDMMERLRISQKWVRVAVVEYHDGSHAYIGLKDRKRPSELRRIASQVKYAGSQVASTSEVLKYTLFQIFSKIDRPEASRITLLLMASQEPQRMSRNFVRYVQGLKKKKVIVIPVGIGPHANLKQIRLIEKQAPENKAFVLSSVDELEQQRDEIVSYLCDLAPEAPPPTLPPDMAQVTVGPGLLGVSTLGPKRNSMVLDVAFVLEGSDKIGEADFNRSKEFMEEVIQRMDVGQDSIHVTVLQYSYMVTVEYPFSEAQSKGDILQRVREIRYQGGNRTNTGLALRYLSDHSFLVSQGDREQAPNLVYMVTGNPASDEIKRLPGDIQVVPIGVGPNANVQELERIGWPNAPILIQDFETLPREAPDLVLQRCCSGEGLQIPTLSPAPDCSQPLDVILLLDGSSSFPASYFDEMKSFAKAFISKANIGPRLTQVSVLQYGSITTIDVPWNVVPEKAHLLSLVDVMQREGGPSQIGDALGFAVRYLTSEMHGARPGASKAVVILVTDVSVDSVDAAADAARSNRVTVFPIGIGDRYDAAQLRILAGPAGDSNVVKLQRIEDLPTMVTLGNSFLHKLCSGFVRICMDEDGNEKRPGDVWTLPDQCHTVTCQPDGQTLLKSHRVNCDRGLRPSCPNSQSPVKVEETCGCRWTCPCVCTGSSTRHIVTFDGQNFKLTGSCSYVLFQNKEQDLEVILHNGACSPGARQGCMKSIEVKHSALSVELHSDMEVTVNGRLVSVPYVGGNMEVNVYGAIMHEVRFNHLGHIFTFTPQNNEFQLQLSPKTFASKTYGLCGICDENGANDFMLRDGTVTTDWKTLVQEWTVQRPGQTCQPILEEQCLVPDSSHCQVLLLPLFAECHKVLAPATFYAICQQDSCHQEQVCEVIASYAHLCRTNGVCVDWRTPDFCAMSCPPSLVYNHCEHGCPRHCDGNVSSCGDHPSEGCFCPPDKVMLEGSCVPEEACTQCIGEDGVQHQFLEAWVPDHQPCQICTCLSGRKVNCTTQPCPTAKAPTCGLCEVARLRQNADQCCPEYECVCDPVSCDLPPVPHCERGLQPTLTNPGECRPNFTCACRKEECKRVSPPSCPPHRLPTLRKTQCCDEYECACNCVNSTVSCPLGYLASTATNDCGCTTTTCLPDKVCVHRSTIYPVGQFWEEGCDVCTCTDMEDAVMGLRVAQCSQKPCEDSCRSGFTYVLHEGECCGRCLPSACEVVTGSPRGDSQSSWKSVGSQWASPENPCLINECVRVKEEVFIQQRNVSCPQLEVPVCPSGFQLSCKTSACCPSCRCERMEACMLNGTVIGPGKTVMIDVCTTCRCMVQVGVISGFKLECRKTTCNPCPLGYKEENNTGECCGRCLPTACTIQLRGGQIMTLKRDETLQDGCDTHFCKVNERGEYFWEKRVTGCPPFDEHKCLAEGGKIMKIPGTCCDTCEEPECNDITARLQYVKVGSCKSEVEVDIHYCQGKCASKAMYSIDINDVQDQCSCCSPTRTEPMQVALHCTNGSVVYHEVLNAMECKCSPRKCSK
Experimental: (§1) The affinity of BT200, with or without pre-incubation with BT101, for purified human VWF was evaluated using an enzyme-linked immunosorbent assay (ELISA) method. In this study, purified human VWF protein was dissolved in Dulbecco's phosphate buffered saline (dPBS) buffer at a concentration of 10 μg/mL and 100 μL of this solution was added to each well of a Nunc Maxisorp 96-well plate. The plate was incubated overnight at 4° C. The following day, the plate was washed 3 times, followed by blocking with 5% bovine serum albumin (BSA) in dPBS at room temperature for 90 minutes. The blocked plate was then washed 3 times before adding either BT200 at concentrations of 0.3, 1, 3, 10, 30, 100, 300, 1000, 3000, and 10000 nM or a pre-incubated 1:1 molar ratio of BT101:BT200 at the same concentrations. BT101 and BT200 were mixed and incubated at 37° C. for 30 minutes prior to addition to the plate.
(§2) Plates were then incubated at 37° C. for 2 hours. Each plate was then washed 3 times and 100 μL of anti-PEG antibody at 1 μg/mL in 1% BSA/dPBS was added to each well and incubated for 1 hour at room temperature. […] To stop the reaction, 100 μL of 2 N H₂SO₄ was added to each well and the plate was then read at 450 nm for absorbance and the mean absorbance under each set of conditions was recorded.

[2] = target: T1, von Willebrand factor (VWF); experiment: ELISA with anti-PEG detection; dPBS, 37 C, 2 h
Experimental: as §1, §2

Binder | binding result [1] | EC50 [2]
B1 | no binding | 
GCCAGGGACCUAAGACACAUGUCCCUGGC (ssRNA, all residues 2'-OMe; 5' PEG40K-NH; 3' idT (final t of SEQ 6)) [BT200] |  | 0.331 µM
